Measured values as given in patent publication US20050064507A1, “Determining kinase specificity” (priority 2003, published 2005).

Biological target: T1, PKC-delta (Homo sapiens, UniProt Q05655)
T1 construct: purchased Calbiochem
Experiment: In vitro kinase assay: peptide phosphorylation by PKC-delta
Assay type: biochemical
Description: One approach to validating a substrate identification method can involve, for example, comparison of substrate sites predicted by the method with in vitro phosphorylation results obtained using the selected kinase and peptides of known sequences. Such a systematic validation has been performed for the methods described herein. For example, a panel of seventy five peptides was synthesized, the phosphorylation observed for each peptide was experimentally measured, the amount of phosphorylation was quantified, the phosphorylation results for each peptide were normalized to the phosphorylation observed with the best substrate tested and these amounts were compared with predictions made according to the invention and according to the procedures provided by others. These peptides are referred to herein as proteomic peptides because their sequences are chosen from proteins in the human proteome; unlike the test sets employed herein, these peptides include no degenerate positions
Table 2 compares the present predictions with actual measurements of phosphorylation on validating peptides. The method of synthesis of the validating peptides was as described elsewhere in the application, and each included an N-terminal linker sequence of biotinylated-Lys-dansylated-Lys-Pro-Pro-Gly (SEQ ID NO:231). The length of the remaining “core” of the validating peptides ranged from 12-21 residues with one to five S/T residues. In vitro phosphorylation of these validating peptides was measured in the manner described herein. […] In vitro phosphorylation results for the validating peptides were expressed as normalized values, namely as a percentage of phosphorylation of the best validating peptide substrate in the group.
The conditions of the kinase assay and the amount of active kinase used varied with the kinase and with the accuracy needed. For a typical experiment, 5-20 ng of kinase was used per well and each peptide pool was assayed in duplicate wells. Note that the absolute amount of kinase used was not usually a critical parameter, because the desired information related to specificity of the kinase not its absolute activity, and robustness of the assay depends on comparisons of the same amount of kinase on different peptides. The combination of kinase concentration and assay duration was modified to assure that the stoichiometry of peptide phosphorylation never exceeded 5%. The choice of kinase buffer depended on the kinase being analyzed. For studies of PKC, 100 mM HEPES, 0.05% Triton-X100, 1 mM CaCl2, 20 mM MgCl2, 0.2 mg/ml phosphatidyl serine (Avanti Polar Lipids), PMA 100 ng/ml was typically used. The lipid stock was prepared by transferring 3 mg phosphatidyl serine into iced mixture of 450 μl water plus 50 μl of 10% Triton-X100, sonicating 10 times on ice for 1 sec each.
The kinase reaction mixture was assembled by sequential addition to a tube held on ice of: 5 μl peptide (100 μM for final concentration of 10 μM), 15 μl of kinase (typically 5 ng/well, in appropriate kinase buffer), 30 μl of ATP (1 uCi/well of ^32P-gamma ATP in a stock of 167 μM cold ATP in the kinase buffer; for final concentration for 100 μM ATP). The mixture was rapidly warmed to desired reaction temperature (30° C. for PKC) and incubated for the desired duration (usually 10 minutes). The kinase assay was terminated by transfer to 4° C. water batch, and rapid addition of an equal volume (50 μl) of stop solution [0.1M ATP+0.1M EDTA in water, pH 8].
The peptides were then captured from the reaction mixture by transfer to a Reacti-Bind Streptavidin High Binding Capacity Coated Plates (HBC) (Pierce Biotechnology) as follows. The HBC plates were pre-rinsed three times with PBS/Tween PBS/Tween20 0.05% (PBS/Tween). […]

T1 sequence (Q05655 whole entry): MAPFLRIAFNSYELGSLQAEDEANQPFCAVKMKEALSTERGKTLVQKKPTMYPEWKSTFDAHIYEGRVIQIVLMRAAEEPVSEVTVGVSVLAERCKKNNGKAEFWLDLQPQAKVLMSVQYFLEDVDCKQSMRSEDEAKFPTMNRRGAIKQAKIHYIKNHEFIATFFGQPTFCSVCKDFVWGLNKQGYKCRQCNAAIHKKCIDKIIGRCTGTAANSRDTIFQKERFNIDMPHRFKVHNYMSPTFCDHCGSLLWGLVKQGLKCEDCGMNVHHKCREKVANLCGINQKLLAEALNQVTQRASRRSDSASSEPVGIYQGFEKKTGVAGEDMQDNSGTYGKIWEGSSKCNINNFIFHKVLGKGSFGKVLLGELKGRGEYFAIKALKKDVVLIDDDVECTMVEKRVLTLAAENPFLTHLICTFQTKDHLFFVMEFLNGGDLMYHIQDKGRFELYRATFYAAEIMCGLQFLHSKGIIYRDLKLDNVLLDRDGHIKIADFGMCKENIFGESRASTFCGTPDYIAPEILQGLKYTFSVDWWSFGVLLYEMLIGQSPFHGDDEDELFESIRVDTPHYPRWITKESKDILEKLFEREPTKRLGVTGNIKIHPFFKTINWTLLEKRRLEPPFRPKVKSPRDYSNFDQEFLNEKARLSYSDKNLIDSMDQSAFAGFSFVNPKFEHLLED

Row | Substance | phosphorylation by PKC-delta (peptide concentration 1 uM) | phosphorylation by PKC-delta (peptide concentration 10 uM)
1 | 132 (GFLNEPLSSKSQRRKSLKLK) [compound 132] | 41 | 47
2 | 166 (MAQIERGEARIQRRISIKKA) [compound 166] | 13 | 29
3 | 134 (RSRSRSRSKSKDKRKSRKRS) [compound 134] | 44 | 16
4 | 167 (GLPAPGEDKSIYRRGSRRWR) [compound 167] | 13 | 24
5 | 123 (KKRFSFKKSFKLSGFSFKKN) [compound 123] | 45 | 22
6 | 143 (VRYTPYTISPYNRKGSFRKQ) [compound 143] | 33 | 32
7 | 131 (WKGKRRSKARKKRK) [compound 131] | 38 | 29
8 | 142 (ERHVAQKKSRLRRRASQLKI) [compound 142] | 30 | 36
9 | 129 (VQRHRSMRKTFARYLSFRRD) [compound 129] | 32 | 14
10 | 127 (SQVQKQRSAGSFKRNSIKKI) [compound 127] | 52 | 33
11 | 157 (PSPSNETPKKKKKRFSFKKS) [compound 157] | 27 | 35
12 | 154 (KKFFTQGWAGWRKKTSFRKP) [compound 154] | 26 | 14
13 | 140 (TELEGGFSRQRKRKLSFRRR) [compound 140] | 44 | 49
14 | 119 (KKRFSFKKSFKLSGFSFKKN) [compound 119] | 42 | 16
15 | 117 (NRKKKRTSFKRKA) [compound 117] | 100 | 79
16 | 120 (AKRRRLSSLRASTSK) [compound 120] | 64 | 32

Row | Substance | phosphorylation by PKC-delta (peptide concentration 1 uM) | phosphorylation by PKC-delta (peptide concentration 10 uM)
17 | 144 (LSSMFGTLPRKSRKGSVRKQ) [compound 144] | 35 | 28
18 | 137 (PSKSPSKKKKKFRTPSFLKK) [compound 137] | 38 | 16
19 | 125 (PLKEKKRERKTSSKSSVRKR) [compound 125] | 46 | 36
20 | 156 (SAQITIPKDGQKRKKSLRKK) [compound 156] | 29 | 31
21 | 133 (LEKRGMLGKRPRRKSSRRKK) [compound 133] | 46 | 52
22 | 114 (KKKKRASFKRKSSKKG) [compound 114] | 80 | 100
23 | 163 (PPRTPGWHQLQPRRVSFRGE) [compound 163] | 13 | 21
24 | 139 (RPTPGDGEKRSRIKKSKKRK) [compound 139] | 31 | 24
25 | 162 (KKKFSFKKPFKLSGLSFKRN) [compound 162] | 21 | 13
26 | 158 (VQMTWSYPDEKNKRASVRRR) [compound 158] | 18 | 33
27 | 135 (KKKFRTPSFLKKSKK) [compound 135] | 40 | 25
28 | 164 (TEGKMARVAWKGKRRSKARK) [compound 164] | 18 | 26
29 | 138 (EYLERRASRRRAV) [compound 138] | 49 | 28
30 | 115 (NRKKKRTSFKRKA) [compound 115] | 94 | 99
31 | 136 (RARRDSLKKIEIW) [compound 136] | 41 | 23
